According to the supplement of paper PMC5998384:

What was measured:
HeLa Kyoto [1] = assay: solubility change mitosis vs G1/S (difference of NP-40 vs SDS log2 ratios) (log2 ratio difference); higher = more soluble in mitosis
HeLa Kyoto [2] = assay: solubility in G1/S (NP-40 vs SDS abundance) (log2 ratio); higher = more soluble; details: cell cycle stage: G1/S
HeLa Kyoto [3] = assay: melting temperature (median over replicates), in situ; higher = more thermally stable
HeLa Kyoto [4] = assay: thermal stability score vs G1/S (z-score of summed log2 fold changes over temperatures); higher = more thermally stable than in G1/S
[5] = cell cycle stage: early G1 (4.5 h after nocodazole release)
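For melting temperature (median over replicates), in situ in this document: HeLa Kyoto cells synchronized by double thymidine or nocodazole block, proteins quantified by TMT10plex mass spectrometry, three independent biological replicates.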
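For solubility change mitosis vs G1/S (difference of NP-40 vs SDS log2 ratios) in this document: synchronized HeLa Kyoto cells (double thymidine block for G1/S, nocodazole release for mitosis), protein amounts in NP-40 versus SDS lysates quantified by mass spectrometry, three biological replicates.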
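For solubility in G1/S (NP-40 vs SDS abundance) in this document: HeLa Kyoto cells arrested at G1/S by double thymidine block, proteins quantified by TMT10plex mass spectrometry in mild NP-40 versus SDS extracts, three biological replicates.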
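For thermal stability score vs G1/S (z-score of summed log2 fold changes over temperatures) in this document: synchronized HeLa Kyoto cells, proteins quantified by TMT10plex mass spectrometry, three biological replicates, mitosis taken 0.5 h after nocodazole release, G1/S directly after double thymidine block.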

Substance | solubility change mitosis (log2) (HeLa Kyoto [1]) | solubility in G1/S (log2) (HeLa Kyoto [2]) | melting temperature (HeLa Kyoto [3]; cell cycle stage: G1/S) [°C] | melting temperature (HeLa Kyoto [3]; cell cycle stage: mitosis) [°C] | thermal stability score (HeLa Kyoto [4]; [5]) | thermal stability score (HeLa Kyoto [4]; cell cycle stage: mitosis)
MSPTQWDFPVELCCRPMAFVTLTGLDVVYNAVHRAVWDAFCANRRADRVPISFKVLPGDHEYPKCRPKRTSYEWYIPKGILKTGWMNKHLNLVPALVVVFYELDWDEPQWKEKQSECATRVEIVRQSLQGRNTKVAVVLIQKKTPLPPGEDVIASERAAALCNACELSGKSLFVLPHTDHLVGYIIRLENAFYEHAQTYYYTEIRRVKSHKEFLNKTTHQLLFVRHQFKIAFFSELKQDTQNALKNYRTAYNLVHELRAHETNILEIKTMAGFINYKICRLCFQHNTPLDAIAQFRKHIDLCKKKIGSAELSFEHDAWMSKQFQAFGDLFDEAIKLGLTAIQTQNPGFYYQQAAYYAQERKQLAKTLCNHEASVMYPNPDPLETQTGVLDFYGQRSWRQGILSFDLSDPEKEKVGILAIQLKERNVVHSEIIITLLSNAVAQFKKYKCPRMKSHLMVQMGEEYYYAKDYTKALKLLDYVMCDYRSEGWWTLLTSVLTTALKCSYLMAQLKDYITYSLELLGRASTLKDDQKSRIEKNLINVLMNESPDPEPDCDILAVKTAQKLWADRISLAGSNIFTIGVQDFVPFVQCKAKFHAPSFHVDVPVQFDIYLKADCPHPIRFSKLCVSFNNQEYNQFCVIEEASKANEVLENLTQGKMCLVPGKTRKLLFKFVAKTEDVGKKIEITSVDLALGNETGRCVVLNWQGGGGDAASSQEALQAARSFKRRPKLPDNEVHWDSIIIQASTMIISRVPNISVHLLHEPPALTNEMYCLVVTVQSHEKTQIRDVKLTAGLKPGQDANLTQKTHVTLHGTELCDESYPALLTDIPVGDLHPGEQLEKMLYVRCGTVGSRMFLVYVSYLINTTVEEKEIVCKCHKDETVTIETVFPFDVAVKFVSTKFEHLERVYADIPFLLMTDLLSASPWALTIVSSELQLAPSMTTVDQLESQVDNVILQTGESASECFCLQCPSLGNIEGGVATGHYIISWKRTSAMENIPIITTVITLPHVIVENIPLHVNADLPSFGRVRESLPVKYHLQNKTDLVQDVEISVEPSDAFMFSGLKQIRLRILPGTEQEMLYNFYPLMAGYQQLPSLNINLLRFPNFTNQLLRRFIPTSIFVKPQGRLMDDTSIAAA [TRAPPC11] | -0.216 | -0.13 | 50.7 | 50.3 | 0.0283 | -0.012
MAVARAALGPLVTGLYDVQAFKFGDFVLKSGLSSPIYIDLRGIVSRPRLLSQVADILFQTAQNAGISFDTVCGVPYTALPLATVICSTNQIPMLIRRKETKDYGTKRLVEGTINPGETCLIIEDVVTSGSSVLETVEVLQKEGLKVTDAIVLLDREQGGKDKLQAHGIRLHSVCTLSKMLEILEQQKKVDAETVGRVKRFIQENVFVAANHNGSPLSIKEAPKELSFGARAELPRIHPVASKLLRLMQKKETNLCLSADVSLARELLQLADALGPSICMLKTHVDILNDFTLDVMKELITLAKCHEFLIFEDRKFADIGNTVKKQYEGGIFKIASWADLVNAHVVPGSGVVKGLQEVGLPLHRGCLLIAEMSSTGSLATGDYTRAAVRMAEEHSEFVVGFISGSRVSMKPEFLHLTPGVQLEAGGDNLGQQYNSPQEVIGKRGSDIIIVGRGIISAADRLEAAEMYRKAAWEAYLSRLGV [UMPS] | -0.08 | 0.169 | 53.9 | 53 | -0.259 | -1.37
EED | 0.102 | -0.587 | 49.7 | 50.2 | 1.42 | 1.21
MLNVPSQSFPAPRSQQRVASGGRSKVPLKQGRSLMDWIRLTKSGKDLTGLKGRLIEVTEEELKKHNKKDDCWICIRGFVYNVSPYMEYHPGGEDELMRAAGSDGTELFDQVHRWVNYESMLKECLVGRMAIKPAVLKDYREEEKKVLNGMLPKSQVTDTLAKEGPSYPSYDWFQTDSLVTIAIYTKQKDINLDSIIVDHQNDSFRAETIIKDCLYLIHIGLSHEVQEDFSVRVVESVGKIEIVLQKKENTSWDFLGHPLKNHNSLIPRKDTGLYYRKCQLISKEDVTHDTRLFCLMLPPSTHLQVPIGQHVYLKLPITGTEIVKPYTPVSGSLLSEFKEPVLPNNKYIYFLIKIYPTGLFTPELDRLQIGDFVSVSSPEGNFKISKFQELEDLFLLAAGTGFTPMVKILNYALTDIPSLRKVKLMFFNKTEDDIIWRSQLEKLAFKDKRLDVEFVLSAPISEWNGKQGHISPALLSEFLKRNLDKSKVLVCICGPVPFTEQGVRLLHDLNFSKNEIHSFTA [CYB5R4] | -0.0937 | 0.0176 | 53.6 | 53.7 | -0.0239 | -0.629
NUMA1 | 0.493 | -0.199 | 47.7 | 49.7 | 5.09 | 8.74
MALQGISVVELSGLAPGPFCAMVLADFGARVVRVDRPGSRYDVSRLGRGKRSLVLDLKQPRGAAVLRRLCKRSDVLLEPFRRGVMEKLQLGPEILQRENPRLIYARLSGFGQSGSFCRLAGHDINYLALSGVLSKIGRSGENPYAPLNLLADFAGGGLMCALGIIMALFDRTRTGKGQVIDANMVEGTAYLSSFLWKTQKLSLWEAPRGQNMLDGGAPFYTTYRTADGEFMAVGAIEPQFYELLIKGLGLKSDELPNQMSMDDWPEMKKKFADVFAEKTKAEWCQIFDGTDACVTPVLTFEEVVHHDHNKERGSFITSEEQDVSPRPAPLLLNTPAIPSFKRDPFIGEHTEEILEEFGFSREEIYQLNSDKIIESNKVKASL [AMACR] | -0.0545 | 0.155 | 52.1 | 52.5 | 0.0452 | 0.6
MAFNFGAPSGTSGTAAATAAPAGGFGGFGTTSTTAGSAFSFSAPTNTGTTGLFGGTQNKGFGFGTGFGTTTGTSTGLGTGLGTGLGFGGFNTQQQQQTTLGGLFSQPTQAPTQSNQLINTASALSAPTLLGDERDAILAKWNQLQAFWGTGKGYFNNNIPPVEFTQENPFCRFKAVGYSCMPSNKDEDGLVVLVFNKKETEIRSQQQQLVESLHKVLGGNQTLTVNVEGTKTLPDDQTEVVIYVVERSPNGTSRRVPATTLYAHFEQANIKTQLQQLGVTLSMTRTELSPAQIKQLLQNPPAGVDPIIWEQAKVDNPDSEKLIPVPMVGFKELLRRLKVQDQMTKQHQTRLDIISEDISELQKNQTTSVAKIAQYKRKLMDLSHRTLQVLIKQEIQRKSGYAIQADEEQLRVQLDTIQGELNAPTQFKGRLNELMSQIRMQNHFGAVRSEERYYIDADLLREIKQHLKQQQEGLSHLISIIKDDLEDIKLVEHGLNETIHIRGGVFS [NUP54] | 0.0698 | 0.299 | 51.5 | 49 | -3.43 | -5.53
MRRQWGSAMRAAEQAGCMVSASRAGQPEAGPWSCSGVILSRSPGLVLCHGGIFVPFLRAGSEVLTAAGAVFLPGDSCRDDLRLHVQWAPTAAGPGGGAERGRPGLCTPQCASLEPGPPAPSRGRPLQPRLPAELLLLLSCPAFWAHFARLFGDEAAEQWRFSSAARDDEVSEDEEADQLRALGWFALLGVRLGQEEVEEERGPAMAVSPLGAVPKGAPLLVCGSPFGAFCPDIFLNTLSCGVLSNVAGPLLLTDARCLPGTEGGGVFTARPAGALVALVVAPLCWKAGEWVGFTLLCAAAPLFRAARDALHRLPHSTAALAALLPPEVGVPWGLPLRDSGPLWAAAAVLVECGTVWGSGVAVAPRLVVTCRHVSPREAARVLVRSTTPKSVAIWGRVVFATQETCPYDIAVVSLEEDLDDVPIPVPAEHFHEGEAVSVVGFGVFGQSCGPSVTSGILSAVVQVNGTPVMLQTTCAVHSGSSGGPLFSNHSGNLLGIITSNTRDNNTGATYPHLNFSIPITVLQPALQQYSQTQDLGGLRELDRAAEPVRVVWRLQRPLAEAPRSKL [TYSND1] | 0.0273 | -0.163 | 55.1 | 54 | -2.49 | -2.64
MAFRGWRPPPPPLLLLLLWVTGQAAPVAGLGSDAELQIERRFVPDECPRTVRSGDFVRYHYVGTFPDGQKFDSSYDRDSTFNVFVGKGQLITGMDQALVGMCVNERRFVKIPPKLAYGNEGVSGVIPPNSVLHFDVLLMDIWNSEDQVQIHTYFKPPSCPRTIQVSDFVRYHYNGTFLDGTLFDSSHNRMKTYDTYVGIGWLIPGMDKGLLGMCVGEKRIITIPPFLAYGEDGDGKDIPGQASLVFDVALLDLHNPKDSISIENKVVPENCERISQSGDFLRYHYNGTLLDGTLFDSSYSRNRTFDTYIGQGYVIPGMDEGLLGVCIGEKRRIVVPPHLGYGEEGRGNIPGSAVLVFDIHVIDFHNPSDSISITSHYKPPDCSVLSKKGDYLKYHYNASLLDGTLLDSTWNLGKTYNIVLGSGQVVLGMDMGLREMCVGEKRTVIIPPHLGYGEAGVDGEVPGSAVLVFDIELLELVAGLPEGYMFIWNGEVSPNLFEEIDKDGNGEVLLEEFSEYIHAQVASGKGKLAPGFDAELIVKNMFTNQDRNGDGKVTAEEFKLKDQEAKHDEL [FKBP9] | -0.0483 | 0.21 | 53.7 | 54.5 | 4.29 | 4.83
